Assay results reported in article PMC4954055, “A Self‐Assembled Respiratory Chain that Catalyzes NADH Oxidation by Ubiquinone‐10 Cycling between Complex I and the Alternative Oxidase” (Angewandte Chemie (International Ed. in English), 2015).

Substrate: COC1=C(OC)C(=O)C(C/C=C(\C)CC/C=C(\C)CC/C=C(\C)CC/C=C(\C)CC/C=C(\C)CC/C=C(\C)CC/C=C(\C)CC/C=C(\C)CC/C=C(\C)CCC=C(C)C)=C(C)C1=O
Experiment: NADH:O2 oxidoreduction in Q10 proteoliposomes, Michaelis-Menten fit
Assay type: biochemical, Bos taurus
Details: 200 μM NADH, 15 μg/mL alamethicin, 10 mM Tris-SO4 pH 7.5, 50 mM KCl, 32 °C, excess AOX reoxidizes Q10H2, membrane-phase concentration, stated as approximately 3.9 mM Q10 in the membrane phase

B1: complex I (NADH:ubiquinone oxidoreductase, CI) (Bos taurus) (protein)
chain 1: ARQWQPDVEWAEQYGGAVMYPTKETAHWKPPPWNDVDPPKDTLVSNLTLNFGPQHPAAHGVLRLVMELSGEMVRKCDPHIGLLHRGTEKLIEYKTYLQALPYFDRLDYVSMMCNEQAYSLAVEKLLNIQPPPRAQWIRVLFGEITRLLNHIMAVTTHALDIGAMTPFFWMFEEREKMFEFYERVSGARMHAAYVRPGGVHQDLPLGLMDDIYEFSKNFSLRIDELEEMLTNNRIWRNRTVDIGIVTAEDALNYGFSGVMLRGSGIQWDLRKTQPYDVYDQVEFDVPIGSRGDCYDRYLCRVEEMRQSIRIISQCLNKMPPGEIKVDDAKVSPPKRAEMKTSMESLIHHFKLYTEGYQVPPGATYTAIEAPKGEFGVYLVSDGSSRPYRCKIKAPGFAHLAGLDKMSKGHMLADVVAIIGTQDIVFGEVDR
chain 2: not shown
chain 3: not shown
notes: native complex purified from heart mitochondria, detergent-solubilized, reconstituted into proteoliposomes with Q10 and AOX; with NADH dehydrogenase [ubiquinone] flavoprotein 1, mitochondrial; NADH dehydrogenase [ubiquinone] flavoprotein 2, mitochondrial; NADH-ubiquinone oxidoreductase 75 kDa subunit, mitochondrial; NADH dehydrogenase [ubiquinone] iron-sulfur protein 3, mitochondrial; NADH …
Protein B1 has a kcat of 500 s⁻¹.
